Data reported in the nanobody polyreactivity screen of Harvey et al. (2022).

Test: yeast display, Sf9 membrane polyspecificity reagent, FACS + sequencing; frameworks hold sequencing errors
Summary of the method: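 In a synthetic yeast display library (Saccharomyces cerevisiae BJ5465), nanobody expression was induced with galactose for 36–48 hours. FACS gates were set low and high (top ~1%) using anti-HA fluorescence for expression and streptavidin fluorescence for binding of the Sf9 membrane reagent. Each polyreactivity label is drawn from the gate of origin.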

| Sequence | polyreactivity (PSR sort gate) |
| --- | --- |
| QVQLVESGGGLVQAGGSLRLSCAASGSTFPRNAMGWYRQAPGKERELVATITSSGGGTYYADSVKGRFTISRDNAKNTVYLQMNSLKPEDTAVYYCNAAGPAGDAFDYWGQGTQVTVSS | low polyreactivity |
| QVQLVESGGGLVQAGGSLRLSCAASGSTFPRNAMGWYRQAPGKEWELVAAISGRGVRTYYADSVKGRFTISSDNAKNTVNFQMYSLKPEDTAVYYCAASRGKGVGLAYDYWGQGTQVTVSS | high polyreactivity |
| QVQLVESGGGLVQAGGSLRLSCAASGSTFPRYALGWYRQAPGKERELVAAISRSGGSTYYADSVKGRFTISRDNAKNTVYLQMNSLKPEDTAVYYCAARYERGSYKYDYWGQGTQVTVSS | high polyreactivity |
| QVQLVESGGGLVQAGGSLRLSCAASGSTFPRYAMGWYRQAPGKEREFVAVIWSGGSTYYADSVKGRFTISRDNAKNTVYLQMNSLKPEDTAVYYCAAEYHTLSKYSGYATHDYWGQGTQVTVSS | low polyreactivity |
| QVQLVESGGGLVQAGGSLRLSCAASGSTFPRYAMGWYRQAPGKERELVAAISKSGTITSYADSVKGRFTISRDNAKNTVYLQMNSLKPEDTAVYYCAKGRYWPYDYWGQGTQVTVSS | high polyreactivity |
| QVQLVESGGGLVQAGGSLRLSCAASGSTFPSNAMGWYRQAPGKERELVAAITFRGGRTYYADSVKGRFTISRDNAKNTVYLQMNSLKPEDTAVYYCAAERWWYTVRGYGYWGQGTQVTVSS | high polyreactivity |
| QVQLVESGGGLVQAGGSLRLSCAASGSTFPSYAMGWYRQAPGKERELVAAITNGGSTTYADSVKGRFTISRDNAKNTVYLQMNSLKPDDTAVYYCAARYYYYYYYIRRDYWGQGTQVTVSS | low polyreactivity |
| QVQLVESGGGLVQAGGSLRLSCAASGSTFPVNTMGWYRQAPGKERELVAAITKNGANTYYADSVKGRFTISRDNAKNTVYLQMNSLKPEDTADYYCAARYVYGKSYSRWLVELDYWGQGTQVTVSS | low polyreactivity |
| QVQLVESGGGLVQAGGSLRLSCAASGSTFPVYAMGWYRQAPGKERELVAAINSGVSTNYADSVKGRFTISRDNAKNTVYLQMNSLKPEDTAVYYCNTSYVGYPDLGINYEFDYWGQGTQVTVSS | low polyreactivity |
| QVQLVESGGGLVQAGGSLRLSCAASGSTFPVYAMGWYRQAPGKERELVATISYSGGSTNYADSVKGRFTISRDNAKNTVYLQMNSLIPEDTAVYYCAARKVNRGSGGYDSWGQGTQVTVSS | high polyreactivity |
| QVQLVESGGGLVQAGGSLRLSCAASGSTFPWYTMGWYRQAPGKERELVAAISFSGGRTYYADSVKGRFTISRDNAKNTVYLQMNSLKPEDTAVYYCAATVGAASRYYYWGQGTQVTVSS | high polyreactivity |
| QVQLVESGGGLVQAGGSLRLSCAASGSTFPYNAKGWYRQAPGKERELVAAIDYSGGSTYADSVKGRFTISRDNAKNTVYLQMNSLKPEDTAVYYCAYCRVVVYDVSGDDEDYDYWRQGTQVTVSS | low polyreactivity |
| QVQLVESGGGLVQAGGSLRLSCAASGSTFPYNTMGWYRQAPGKERDFVAAITGDGGTTYYADSVKGRFTISRDNAQNTVYLQMNSLKQEDTAVYYCAVPYPAEGYGGDYWGQGSQVTVSS | low polyreactivity |
| QVQLVESGGGLVQAGGSLRLSCAASGSTFPYYAMGRYRQAPGKERELVAAISQNGGSTYYADSVKGRFTISRDNAKNTVYLQMNSLKPEDTAVYYCNADGVGGEYRLSGYDYWGQGTQVTVSS | low polyreactivity |
| QVQLVESGGGLVQAGGSLRLSCAASGSTFPYYAMGWYRQAPGKERELVAAISGSGGTTYYADSVKGRFTISRDNAKNTVYLQMNILKPEDTAVYYCAAEASHYYYNAYPSYGGSDYWGQGTQVTVSS | low polyreactivity |
| QVQLVESGGGLVQAGGSLRLSCAASGSTFPYYAMGWYRQAPGKERELVAAITSGGSTYYADSVKGRFTISRDNAKNTVYLQMNSLKPEDTAVYYCAARYAPTLSVYRFYYWGQGTQVTVSS | high polyreactivity |
| QVQLVESGGGLVQAGGSLRLSCAASGSTFPYYAMGWYRQAPGKERELVAAITSSTGRTYYADSVKGRFTISRDNAKNTVYFQMNSLKPEDTAVYYCNAEVYSDPYNDHDYWGQGTQVTVSS | low polyreactivity |
| QVQLVESGGGLVQAGGSLRLSCAASGSTFPYYAMGWYRQAPGKEWDLVAAISASVGSTYYADSVKGRFTISRDNAKNTVYLQMNSLKPEDTAVYYCNRVRSSYVYVSRFDSWGQGNQVTVSS | high polyreactivity |
| QVQLVESGGGLVQAGGSLRLSCAASGSTFPYYARVWYRQEPGKETELVAAISSSGGSTYYADSVKGRFTISRDNAKNTVFLQMNSLKPEDPAVYYCAARRKFPYRHDYWGQGTLVTVSS | high polyreactivity |
| QVQLVESGGGLVQAGGSLRLSCAASGSTFPYYGMGWYRQAPGKERELVAAINSGGSTYYADSVKGRFTISRDNAKNTVYLQMNSLKPEDTAVYYCNAAYPEWYAYDYWGQGTQVTVSS | low polyreactivity |
| QVQLVESGGGLVQAGGSLRLSCAASGSTFPYYTMGWYRQAPGKERELVAAITWRGGRTYYADSVKGRFTISRDNAKNTVYLQMNSLKPEDTAVYYCAAVTWVHRYSRFHPFVAFDFWGQGTQVTVSS | high polyreactivity |
| QVQLVESGGGLVQAGGSLRLSCAASGSTFPYYVMGWYRQAPGKERELVAAISWSGASTYYADSVKGRFTISRDNAKNTVYLQMNSLKPEDTAVYYCNRPKWYDGDYWGQGTQVTVSS | high polyreactivity |

| Sequence | polyreactivity (PSR sort gate) |
| --- | --- |
| QVQLVESGGGLVQAGGSLRLSCAASGSTFQFNFMGWYRQAPGKERELVAAITSGASTYYADSVKGRFTISRDNAMNTVYLQMNSLEPEDTAVYYCAVDYSFRYDYVQRYYYLGQGTQVTVSS | high polyreactivity |
| QVQLVESGGGLVQAGGSLRLSCAASGSTFQGYAMGWYGQAPGKERELVAAINYSGGSTYYADSVKGRFTISRDNAKNTVYLQMNSLKPEDTAVYFCAARWYAVRDDYIVRYDYWGQGTQVTVSS | high polyreactivity |
| QVQLVESGGGLVQAGGSLRLSCAASGSTFQGYAMGWYRQAPGKERELVAAISWNGGSTYYADSVKGRFTISRDNAKNTVYLQMNSLKPEDTAVYYCAAYSFAYRFNYWGQGTQVTVSS | high polyreactivity |
| QVQLVESGGGLVQAGGSLRLSCAASGSTFQGYAMGWYRQAPGKERELVSAISGSGGNTYYADSVKGRFTISRDNAKNTVYLQMNSLKPEVTAVYSCAAGHVRTDWRYGYWGQGTQVTVSS | low polyreactivity |
| QVQLVESGGGLVQAGGSLRLSCAASGSTFQINAMGWYRQAPGKEREFVAAITVSSGSTYYADSVKGRFTISRDNAKNTVYLQMNSLKPEDTAVYYCAAEFHWWYAGYDYGYWGQGTQVTVSS | low polyreactivity |
| QVQLVESGGGLVQAGGSLRLSCAASGSTFQINAMGWYRQAPGKERELVAAIDGGGDTYYADSVKGRFTISRDNAKNTVYLQMNTLKPEDTAVYYCAAERRIYYQDFNYWGQGTQVTVSS | low polyreactivity |
| QVQLVESGGGLVQAGGSLRLSCAASGSTFQINAMGWYRQAPGKERELVAAIDGGGDTYYADSVKGRFTISRDNAKYTVYLQMNSMKPEDTAVYYCAAERRIYYQDFNFWGQGTQVTVSS | low polyreactivity |
| QVQLVESGGGLVQAGGSLRLSCAASGSTFQIYTMGWYRQAPGKERELVAAITNGGGSTYYADSVKGRFTISRDNAKNTVYLQMNSLKPEDTAVYYCAAEQRYPLIILYDYWGQGTQVTVSS | low polyreactivity |
| QVQLVESGGGLVQAGGSLRLSCAASGSTFQLYAMGWYRPPPGTERELVAGISRDGSTYYADSVKARFSISRDNSKNTVYLQMNSLKPEDTAVYYCAAKYYGNKRDLYYWGQGTQVTVSS | low polyreactivity |
| QVQLVESGGGLVQAGGSLRLSCAASGSTFQLYVMGWYRQAPGKERELVAAIDDGGGSTYYADSVKGRFTISRDNAKNTVYLQMNSLKPEDTAVYYCARRYGYFGYEYDYWGQGTQVTVSS | high polyreactivity |
| QVQLVESGGGLVQAGGSLRLSCAASGSTFQNYAMGWYRQAPGKERELVATINWSGGNTYYADSVKGRFTISRDNAKNTVYLQMNSLKPEDTAVYYCAADSPRYYYWVGPYYGYDYWGQGTQVTVSS | high polyreactivity |
| QVQLVESGGGLVQAGGSLRLSCAASGSTFQRNAMGWYRQAPGKERELVAVITRRGASTYYADSVKGRFTISRDYEKNTVYLQMKSLKAEDTAVYYCNKVPYGRDHHLLFDYWGQGTQVTVSS | high polyreactivity |
| QVQLVESGGGLVQAGGSLRLSCAASGSTFQSNAMGWYRQAPGKERELVASITDSGGRTYYADSVKGRFTSSRDNAKNTVYLQMNSLKPEDTAVYYCAAVSLWWSDYYFVEYDYWGQGTQVTVSS | high polyreactivity |
| QVQLVESGGGLVQAGGSLRLSCAASGSTFQSNGMGWYRQAPGKERELVAAITSTDASTSYADSVKGRFTISRDNAKNTVYLQMNSLKPEDTAVYYCAADFPVASGAELDYWGQGTQVTVSS | low polyreactivity |
| QVQLVESGGGLVQAGGSLRLSCAASGSTFQSYAMGWYRQAPGKERELVAAITTTGTRTYYADSVKGRFTISRDNAKNTVYLQMNSLKPEDTAVYYCNAQRLQAHRTSRRYGYWGQGTQVTVSS | high polyreactivity |
| QVQLVESGGGLVQAGGSLRLSCAASGSTFQSYTMGWYRPAPGKERELVAAISSSGGRTYYADSVKGRFTISRDNAKHTVYLQMNSLKPEDTAVYYCAAVTQSWRGATWYDYWGQGTQVTVSS | high polyreactivity |
| QVQLVESGGGLVQAGGSLRLSCAASGSTFQTNAMGWYRQAPGKERELVAAINSGGGTNYADSVKGRFTISRDNAKNTVYLQMNSLKPEDTAVYYCATDVLPRKYVSDYPSGAYDYWGQGTQVTVSS | low polyreactivity |
| QVQLVESGGGLVQAGGSLRLSCAASGSTFQTNARGWYRQAPGKERELVAAITWSGTSTYADSVKGRFTISRDNAKNPGYFQMNSLKPDDTAVYYCAAPILSFPSPYVQYDYWGLGTQVTVSS | low polyreactivity |
| QVQLVESGGGLVQAGGSLRLSCAASGSTFQWNAMGWYRQAPGKERELVAAISKSGGRTYYADSVKGRFTISRDFAKNTVYLQRNSLKPDDTAVYYCNALGSLDGRYGYWGQGTQVTVSS | high polyreactivity |
| QVQLVESGGGLVQAGGSLRLSCAASGSTFQWYAMGWYRQAPGKERELVAAINKSGGTTYYADSVKGRFTISRDNAKNTVYLQMNSLKPEDTAVYYCAADTQQRGVYPRWWNPEFDYWGLGTQVTVSS | low polyreactivity |
| QVQLVESGGGLVQAGGSLRLSCAASGSTFQYNAMAWYRQAPGKEREFVAAITSSGGSTYYADSVKGRFTISRDNAKNTVYLQMNSLKPEDTAVYYCNKRRTRRYDYWGQGTQVTVSS | high polyreactivity |
